Test results reported in patent publication US20110263454A1, “Methods of Identifying Functional Characteristics of Promoters, Transcription Modifying Proteins and Transcription Modulating Agents” (Salk Institute for Biological Studies, priority 2008, published 2011).

B1: HNF4g: Hepatocyte Nuclear Factor γ (NR2A2), cDNA driver (protein, UniProt Q14541 1-408, looked up)
Hepatocyte nuclear factor …: MNTTDNGVNCLCAICGDRATGKHYGASSCDGCKGFFRRSIRKSHVYSCRFSRQCVVDKDKRNQCRYCRLRKCFRAGMKKEAVQNERDRISTRRSTFDGSNIPSINTLAQAEVRSRQISVSSPGSSTDINVKKIASIGDVCESMKQQLLVLVEWAKYIPAFCELPLDDQVALLRAHAGEHLLLGATKRSMMYKDILLLGNNYVIHRNSCEVEISRVANRVLDELVRPFQEIQIDDNEYACLKAIVFFDPDAKGLSDPVKIKNMRFQVQIGLEDYINDRQYDSRGRFGELLLLLPTLQSITWQMIEQIQFVKLFGMVKIDNLLQEMLLGGASNDGSHLHHPMHPHLSQDPLTGQTILLGPMSTLVHADQISTPETPLPSPPQGSGQEQYKIAANQASVISHQHLSKQKQL
B2: TR2: Testicular Orphan Nuclear Receptor 2 (NR2C1), cDNA driver (protein, UniProt P13056 1-603, looked up)
Nuclear receptor subfamily 2 …: MATIEEIAHQIIEQQMGEIVTEQQTGQKIQIVTALDHNTQGKQFILTNHDGSTPSKVILARQDSTPGKVFLTTPDAAGVNQLFFTTPDLSAQHLQLLTDNSPDQGPNKVFDLCVVCGDKASGRHYGAVTCEGCKGFFKRSIRKNLVYSCRGSKDCIINKHHRNRCQYCRLQRCIAFGMKQDSVQCERKPIEVSREKSSNCAASTEKIYIRKDLRSPLTATPTFVTDSESTRSTGLLDSGMFMNIHPSGVKTESAVLMTSDKAESCQGDLSTLANVVTSLANLGKTKDLSQNSNEMSMIESLSNDDTSLCEFQEMQTNGDVSRAFDTLAKALNPGESTACQSSVAGMEGSVHLITGDSSINYTEKEGPLLSDSHVAFRLTMPSPMPEYLNVHYIGESASRLLFLSMHWALSIPSFQALGQENSISLVKAYWNELFTLGLAQCWQVMNVATILATFVNCLHNSLQQDKMSTERRKLLMEHIFKLQEFCNSMVKLCIDGYEYAYLKAIVLFSPDHPSLENMEQIEKFQEKAYVEFQDYITKTYPDDTYRLSRLLLRLPALRLMNATITEELFFKGLIGNIRIDSVIPHILKMEPADYNSQIIGHSI
B3: TR4: Testicular Orphan Nuclear Receptor 4 (NR2C2), cDNA driver (protein, UniProt P49116 1-596, looked up)
Nuclear receptor subfamily 2 …: MTSPSPRIQIISTDSAVASPQRIQIVTDQQTGQKIQIVTAVDASGSPKQQFILTSPDGAGTGKVILASPETSSAKQLIFTTSDNLVPGRIQIVTDSASVERLLGKTDVQRPQVVEYCVVCGDKASGRHYGAVSCEGCKGFFKRSVRKNLTYSCRSNQDCIINKHHRNRCQFCRLKKCLEMGMKMESVQSERKPFDVQREKPSNCAASTEKIYIRKDLRSPLIATPTFVADKDGARQTGLLDPGMLVNIQQPLIREDGTVLLATDSKAETSQGALGTLANVVTSLANLSESLNNGDTSEIQPEDQSASEITRAFDTLAKALNTTDSSSSPSLADGIDTSGGGSIHVISRDQSTPIIEVEGPLLSDTHVTFKLTMPSPMPEYLNVHYICESASRLLFLSMHWARSIPAFQALGQDCNTSLVRACWNELFTLGLAQCAQVMSLSTILAAIVNHLQNSIQEDKLSGDRIKQVMEHIWKLQEFCNSMAKLDIDGYEYAYLKAIVLFSPDHPGLTSTSQIEKFQEKAQMELQDYVQKTYSEDTYRLARILVRLPALRLMSSNITEELFFTGLIGNVSIDSIIPYILKMETAEYNGQITGASL
B4: Erb: Estrogen Receptor β (NR3A2, ERb), cDNA driver (protein, UniProt Q92731 1-530, looked up)
Estrogen receptor beta: MDIKNSPSSLNSPSSYNCSQSILPLEHGSIYIPSSYVDSHHEYPAMTFYSPAVMNYSIPSNVTNLEGGPGRQTTSPNVLWPTPGHLSPLVVHRQLSHLYAEPQKSPWCEARSLEHTLPVNRETLKRKVSGNRCASPVTGPGSKRDAHFCAVCSDYASGYHYGVWSCEGCKAFFKRSIQGHNDYICPATNQCTIDKNRRKSCQACRLRKCYEVGMVKCGSRRERCGYRLVRRQRSADEQLHCAGKAKRSGGHAPRVRELLLDALSPEQLVLTLLEAEPPHVLISRPSAPFTEASMMMSLTKLADKELVHMISWAKKIPGFVELSLFDQVRLLESCWMEVLMMGLMWRSIDHPGKLIFAPDLVLDRDEGKCVEGILEIFDMLLATTSRFRELKLQHKEYLCVKAMILLNSSMYPLVTATQDADSSRKLAHLLNAVTDALVWVIAKSGISSQQQSMRLANLLMLLSHVRHASNKGMEHLLNMKCKNVVPVYDLLLEMLNAHVLRGCKSSITGSECSPAEDSKSKEGSQNPQSQ
B5: ERR2: Estrogen Related Receptor β (NR3B2, ERRb), cDNA driver (protein, UniProt O95718 1-433, looked up)
Steroid hormone receptor ERR2: MSSDDRHLGSSCGSFIKTEPSSPSSGIDALSHHSPSGSSDASGGFGLALGTHANGLDSPPMFAGAGLGGTPCRKSYEDCASGIMEDSAIKCEYMLNAIPKRLCLVCGDIASGYHYGVASCEACKAFFKRTIQGNIEYSCPATNECEITKRRRKSCQACRFMKCLKVGMLKEGVRLDRVRGGRQKYKRRLDSESSPYLSLQISPPAKKPLTKIVSYLLVAEPDKLYAMPPPGMPEGDIKALTTLCDLADRELVVIIGWAKHIPGFSSLSLGDQMSLLQSAWMEILILGIVYRSLPYDDKLVYAEDYIMDEEHSRLAGLLELYRAILQLVRRYKKLKVEKEEFVTLKALALANSDSMYIEDLEAVQKLQDLLHEALQDYELSQRHEEPWRTGKLLLTLPLLRQTAAKAVQHFYSVKLQGKVPMHKLFLEMLEAKV

test system: SREBP1c promoter; assay: NHR-promoter luciferase screen, SREBP1c promoter; assay type: cell-based, mouse; details: SREBP1c promoter; HR component without or with ligand
Summary of the method: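 CV-1 cells co-transfected with 50 ng NHR (homodimer or NHR/RXR heterodimer), 100 ng promoter-luciferase and 50 ng LacZ. Luciferase read at 48 h, normalised to LacZ and to a no-NHR/no-ligand control.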

Molecule | Luc. act., normalized to lacZ | Normalized Luc. act., normalized to control
B1 | 296.9 | 0.9
B2 | 102.9 | 0.3
B3 | 477.6 | 1.5
B4 | 249.2 | 0.8
B5 | 347.9 | 1.1

same assay, conditions: transcription factor +/- ligand; control = 1.00

Molecule | mSREBP1-c promoter reporter activity
B1 | 0.92
B2 | 0.32
B3 | 1.48
B4 | 0.77
B5 | 1.08

test system: hPOMC promoter; assay: NHR-promoter luciferase screen, hPOMC promoter; assay type: cell-based, human; details: hPOMC promoter-luciferase, NHR +/- ligand, control = 1.0
Summary of the method: (§1)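 CV-1 cells were co-transfected with 50 ng NHR (homodimer or NHR/RXR heterodimer), 100 ng promoter-luciferase construct and 50 ng LacZ. Luciferase was normalized to LacZ and to a no-NHR/no-ligand control.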

Molecule | luciferase/LacZ, hPOMC (selected results)
B3 | 11.8

same assay, conditions: hPOMC promoter; HR/ligand component

Molecule | Luc. act., normalized to lacZ | Normalized Luc. act., normalized to control
B1 | 5.3 | 1.2
B2 | 15.7 | 3.6
B3 | 50.7 | 11.8
B4 | 3.2 | 0.7
B5 | 11.6 | 2.7

same assay, conditions: transcription factor +/- ligand; control = 1.00

Molecule | hPOMC promoter reporter activity
B1 | 1.23
B2 | 3.65
B3 | 11.80
B4 | 0.74
B5 | 2.70

test system: hMDR1 promoter; assay: NHR-promoter luciferase screen, hMDR1 promoter; assay type: cell-based, human; details: MDR1 promoter; HR/ligand component
Summary of the method: as §1

Molecule | Luc. act., normalized to lacZ | Normalized Luc. act., normalized to control
B1 | 0.2 | 0.8
B2 | 0.3 | 1.0
B3 | 0.5 | 1.6
B4 | 0.3 | 1.1
B5 | 0.4 | 1.2

same assay, conditions: transcription factor +/- ligand; control = 1.00

Molecule | hMDR1 promoter reporter activity
B1 | 0.75
B2 | 1.01
B3 | 1.57
B4 | 1.06
B5 | 1.20

test system: hPPARg2 promoter; assay: NHR-promoter luciferase screen, hPPARg2 promoter; assay type: cell-based, human; details: PPARG2 promoter; hormone receptor with or without its ligand
Summary of the method: as §1

Molecule | Luc. act., normalized to lacZ
B1 | 1.5
B2 | 1.9
B3 | 3.3
B4 | 2.3
B5 | 3.2

same assay, conditions: PPARG2 promoter; hormone receptor with or without its ligand; relative to control

Molecule | Normalized Luc. act., normalized to control
B1 | 0.8
B2 | 1.0
B3 | 1.6
B4 | 1.1
B5 | 1.6

same assay, conditions: Table 6d; luciferase activity relative to control (control = 1.00)

Molecule | Results of assays of transcription factor (+/- ligand) with hPPARg2
B1 | 0.76
B2 | 0.95
B3 | 1.65
B4 | 1.13
B5 | 1.59

test system: mPgc1b promoter; assay: NHR-promoter luciferase screen, mPgc1b promoter; assay type: cell-based, mouse; details: PGC1b promoter reporter; co-transfected HR, without or with its ligand
Summary of the method: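 CV-1 cells co-transfected with NHR homodimer or NHR/RXR heterodimer (pcDNA3.1, C-terminal V5H6 tag), promoter-luciferase construct and LacZ transfection control. Orphan receptors screened without ligand. Luciferase normalized to LacZ and to no-NHR/no-ligand control.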

Molecule | Luc. act., normalized to lacZ
B1 | 6.8
B2 | 9.8
B3 | 17.3
B4 | 9.2
B5 | 12.7

same assay, conditions: PGC1b promoter reporter; co-transfected HR, without or with its ligand; relative to control

Molecule | Normalized Luc. act., normalized to control
B1 | 0.6
B2 | 0.8
B3 | 1.5
B4 | 0.8
B5 | 1.1

same assay, conditions: mPgc1b promoter-luciferase, CV-1 cells, NHR +/- ligand, control = 1.00

Molecule | luciferase activity normalized to lacZ activity and to a control, mPgc1b
B1 | 0.57
B2 | 0.83
B3 | 1.46
B4 | 0.77
B5 | 1.07

test system: hTNFa promoter; assay: NHR-promoter luciferase screen, hTNFa promoter; assay type: cell-based, human; details: TNFa promoter; HR component without or with ligand
Summary of the method: as §1

Molecule | Luc. act., normalized to lacZ | Normalized Luc. act., normalized to control
B1 | 859.3 | 0.9
B2 | 1038.2 | 1.1
B3 | 1189.6 | 1.2
B4 | 811.5 | 0.8
B5 | 1655.6 | 1.7

same assay, conditions: transcription factor +/- ligand; control = 1.00

Molecule | hTNFa promoter reporter activity
B1 | 0.87
B2 | 1.06
B3 | 1.21
B4 | 0.83
B5 | 1.68
